In EP4707304A1 (Axcynsis Therapeutics Pte. Ltd., dated 2024):

Target: T1, VLP-hCLDN6 (human, UniProt P56747 1-220)
T1 construct: also called VLP-CLDN6; AT-003-ag1
T1 sequence: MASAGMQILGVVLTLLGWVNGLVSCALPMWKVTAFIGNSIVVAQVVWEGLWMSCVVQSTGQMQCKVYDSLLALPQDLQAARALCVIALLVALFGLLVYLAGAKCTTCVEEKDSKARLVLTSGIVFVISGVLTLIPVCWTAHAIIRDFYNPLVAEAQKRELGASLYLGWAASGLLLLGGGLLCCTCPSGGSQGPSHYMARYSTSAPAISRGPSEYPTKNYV
Test: ELISA on coated VLP-hCLDN6

Row | Binder | EC50 [nM]
1 | humanized antibody hAb-44 (antibody, V domains shown, also called VH6VL5) VH: EVKLVESGGGLVKPGGSLRLSCAASGFTFNDYTMSWVRQAPGKRLEWVVTISSGGGRTYYPDSVKGRFTISRDNAKNSLYLQMNSLRAEDTAVYYCIRGDYRYDAFAYWGQGTLVTVSS VL: DIQMTQSPSSLSASVGDRVTITCRASENIDSYLAWYQQKPGKSPQLLVYASTLLQDGVPSRFSGSRSGTDFTLTISSLQPEDVATYYCQHYYSIPYTFGSGTKLEIK | 6.67
2 | humanized antibody hAb-47 (antibody, V domains shown, also called VH6VL4) VH: EVKLVESGGGLVKPGGSLRLSCAASGFTFNDYTMSWVRQAPGKRLEWVVTISSGGGRTYYPDSVKGRFTISRDNAKNSLYLQMNSLRAEDTAVYYCIRGDYRYDAFAYWGQGTLVTVSS VL: DIQMTQSPSSLSASVGDRVTITCRASENIDSYLAWYQQKPGKSPQLLVYASTLLVDGVPSRFSGSRSGTQFSLTISSLQPEDVARYYCQHYYSIPYTFGSGTKLEIK | 0.11
3 | humanized antibody hAb-49 (antibody, V domains shown, also called VH8VL4) VH: EVQLVESGGGLVKPGGSLRLSCAASGFTFNDYTMSWVRQAPGKRLEWVVTISSGGGRTYYPDSVKGRFTISRDNAKNSLYLQMNSLRAEDTAVYYCIRGDYRYDAFAYWGQGTLVTVSS VL: DIQMTQSPSSLSASVGDRVTITCRASENIDSYLAWYQQKPGKSPQLLVYASTLLVDGVPSRFSGSRSGTQFSLTISSLQPEDVARYYCQHYYSIPYTFGSGTKLEIK | 0.07
4 | humanized antibody hAb-46 (antibody, V domains shown, also called VH8VL5) VH: EVQLVESGGGLVKPGGSLRLSCAASGFTFNDYTMSWVRQAPGKRLEWVVTISSGGGRTYYPDSVKGRFTISRDNAKNSLYLQMNSLRAEDTAVYYCIRGDYRYDAFAYWGQGTLVTVSS VL: DIQMTQSPSSLSASVGDRVTITCRASENIDSYLAWYQQKPGKSPQLLVYASTLLQDGVPSRFSGSRSGTDFTLTISSLQPEDVATYYCQHYYSIPYTFGSGTKLEIK | 6.55
5 | humanized antibody hAb-48 (antibody, V domains shown, also called VH7VL4) VH: EVQLVESGGGLVKPGGSLRLSCAASGFTFNDYTMSWVRQAPGKRLEWVVTISSGGGRTYYPDSVKGRFTISRDNAKNTLYLQMSSLRAEDTAVYYCIRGDYRYDAFAYWGQGTLVTVSS VL: DIQMTQSPSSLSASVGDRVTITCRASENIDSYLAWYQQKPGKSPQLLVYASTLLVDGVPSRFSGSRSGTQFSLTISSLQPEDVARYYCQHYYSIPYTFGSGTKLEIK | 0.13
6 | humanized antibody hAb-45 (antibody, V domains shown, also called VH7VL5) VH: EVQLVESGGGLVKPGGSLRLSCAASGFTFNDYTMSWVRQAPGKRLEWVVTISSGGGRTYYPDSVKGRFTISRDNAKNTLYLQMSSLRAEDTAVYYCIRGDYRYDAFAYWGQGTLVTVSS VL: DIQMTQSPSSLSASVGDRVTITCRASENIDSYLAWYQQKPGKSPQLLVYASTLLQDGVPSRFSGSRSGTDFTLTISSLQPEDVATYYCQHYYSIPYTFGSGTKLEIK | 4.84
7 | murine/human chimeric antibody cAb-1 (antibody, V domains shown, also called VH0/VL0) VH: EVKLVESGGGLVKPGGSLKLSCAASGFTFNSYTMSWVRQTPAKRLEWVVTISSGGGRTYYPDSVKGRFTISRDNARNTLYLQMSSLRSEDTAMYYCIRGDYRYDGFAYWGQGTLVTVST VL: DIQMTQSPASLSASVGETVTITCRASENIDSYLAWYQQKQGKSPQLLVYASTLLVDGVPSRFSGSRSGTQFSLKINSLQSEDVARYYCQHYYSIPYTFGSGTKLEIK | 0.59

Target: T1, VLP-hCLDN6
Test: ELISA, VLP-CLDN6 coated 400 ng/well, 4-fold serial dilution, HRP goat anti-human IgG Fc

Row | Binder | EC50 [nM]
8 | murine/human chimeric antibody cAb-3 (antibody, V domains shown, also called cAb-1 with S31D) VH: EVKLVESGGGLVKPGGSLKLSCAASGFTFNDYTMSWVRQTPAKRLEWVVTISSGGGRTYYPDSVKGRFTISRDNARNTLYLQMSSLRSEDTAMYYCIRGDYRYDGFAYWGQGTLVTVST VL: DIQMTQSPASLSASVGETVTITCRASENIDSYLAWYQQKQGKSPQLLVYASTLLVDGVPSRFSGSRSGTQFSLKINSLQSEDVARYYCQHYYSIPYTFGSGTKLEIK | 0.26
9 | murine/human chimeric antibody cAb-1 (antibody, V domains shown, also called VH0/VL0) VH: EVKLVESGGGLVKPGGSLKLSCAASGFTFNSYTMSWVRQTPAKRLEWVVTISSGGGRTYYPDSVKGRFTISRDNARNTLYLQMSSLRSEDTAMYYCIRGDYRYDGFAYWGQGTLVTVST VL: DIQMTQSPASLSASVGETVTITCRASENIDSYLAWYQQKQGKSPQLLVYASTLLVDGVPSRFSGSRSGTQFSLKINSLQSEDVARYYCQHYYSIPYTFGSGTKLEIK | 0.59
10 | murine/human chimeric antibody cAb-2 (antibody, V domains shown, also called cAb-1 with S31E) VH: EVKLVESGGGLVKPGGSLKLSCAASGFTFNEYTMSWVRQTPAKRLEWVVTISSGGGRTYYPDSVKGRFTISRDNARNTLYLQMSSLRSEDTAMYYCIRGDYRYDGFAYWGQGTLVTVST VL: DIQMTQSPASLSASVGETVTITCRASENIDSYLAWYQQKQGKSPQLLVYASTLLVDGVPSRFSGSRSGTQFSLKINSLQSEDVARYYCQHYYSIPYTFGSGTKLEIK | 0.52
11 | murine/human chimeric antibody cAb-18 (antibody, V domains shown, also called cAb-1 with G100K) VH: EVKLVESGGGLVKPGGSLKLSCAASGFTFNSYTMSWVRQTPAKRLEWVVTISSGGGRTYYPDSVKGRFTISRDNARNTLYLQMSSLRSEDTAMYYCIRGDYRYDKFAYWGQGTLVTVST VL: DIQMTQSPASLSASVGETVTITCRASENIDSYLAWYQQKQGKSPQLLVYASTLLVDGVPSRFSGSRSGTQFSLKINSLQSEDVARYYCQHYYSIPYTFGSGTKLEIK | 0.58
